Measurements: the nanobody polyreactivity screen of Harvey et al. (2022)

Assay: yeast display, Sf9 membrane polyspecificity reagent, FACS + sequencing; frameworks hold sequencing errors
Procedure, shortened: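 A synthetic nanobody library was expressed on Saccharomyces cerevisiae BJ5465 by galactose induction for 36–48 hours. The library was stained for 1 hour at 4 °C with 10% biotinylated, detergent-solubilized Sf9 membrane reagent and enriched with streptavidin microbeads before FACS. Low and high (top ~1%) gates were set on anti-HA fluorescence for expression and streptavidin fluorescence for reagent binding, and each polyreactivity label reflects the gate of origin.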

Sequence	polyreactivity (PSR sort gate)
QVQLVESGGGLVQAGGSLRLSCAASGSIFYVYAMGWYRQAPGKERELVAAITNYADSVKGRFTISRDNAKNTVYLQMNSLKPEDTAVYYCAADWWRVEMDYWGQVTQVTVSS	low polyreactivity
QVQLVESGGGLVQAGGSLRLSCAASGRTFRGYVMGWYRQAPGKEREFVAAITRSDGSTYYADSVKGRFTISRDNAKNTVYLQMNSLKPEDTAVYYCAADLRRFQSYYYWGQGTQVTVSS	high polyreactivity
QVQLVESGGGLVQAGGSLRLSCAASGSIFGIYARGWYRQAPGKEREFVATITLGGGNTYYADSVKGRFTISRDYAKNTVYLQMNSLKPEDTAVYYCAARYFGLKRYDDYWGQGTQVTVSS	high polyreactivity
QVQLVESGGGLVQAGGSLRLSCAASGLIFYYYVMGWYRQAPGKERELVARISTSGGSTYYADSVKGRFTISRDNAKNTVYLQMNSLKPEDTAVYYCAARGYRQYGWDGYWGQGTQVTVSS	low polyreactivity
QVQLVESGGGLVQAGGSLRLSCAASGFTSGNYAMGWYRQAPGKEREFVAAITWGDGSTFYADSVKGRFTISRDNAKNTVYLQMNSLKPEDTAVYYCAADYSRTYRAYDYWGQGTQVTVSS	low polyreactivity
QVQLVESGGGLVQAGGSLRLSCAASGRIFDIYAMGWYRQAPGKERELVAAIDESGGSTYYADSVKGRFTISRDNAKNTVYLQMNSLKPEDTAVYYCATDDTWTISYGWYWFTYEYWGQGTQVTVSS	low polyreactivity
QVQLVESGGGLVQAGGSLRLSSAASGRIFHPYAMGWYRPAPGQERELVAAITNSGGITYADSVKGRFTISRGNAKNTVYLQMNSLKPEDTAVYYCNTATNRFHYKYRKPYDYWGQGTQVTVSS	low polyreactivity
QVQLVESGGGLVQAGGSLRLRCAASGYTLGPYAMGWYRQAPGKEREEVAALSWGGGRTYYADSVKGRFTISRDNAKNTVYLQMNSLKPEDTAVYYCGAKWSHVRDGPKYDYWGQGTQVTVSS	low polyreactivity
QVQLVESGGGLVQAGGSLRLSCAASGSIFNYYAMGWYRQAAGKERELVAVITSGGSTYYAESVKGRFTISRDNAKYSVYLQMNSLKPEDTAVYFCAADDGTGEASVSSNLYDYWGQGTQVTVSS	low polyreactivity
QVQLQEGGGGLVQAGGSLRLSCAASGYISYGDDMGWYRQAPGEERELVASIGLDATTNYADSVKGRFTISRDNAKITVYLQMNSLKPEDTAVYYCAADVGSGVLCGYWGQGTQMTVSS	high polyreactivity
QVQLVESGGGLVQAGGSLRLSCAASRSTSYDYAMGWYRQAPGKERELVAAISGSSSTTYYADSVKGRFTISRDNAKNTVSLQMNSLKPEDTAVYYCNAVTTSGSGYGYWGQGTQVTVSS	low polyreactivity
QVQHVESGGGLVQAGGSLRLSCAASGSTFRTYGMGWYRQAPGKERELVAGITRGGSTTYADSVKGRFTISRDNAKNTVYLQMNSLKPEDTAVYYCNAGYVRVRAHNYDYWGQGTQVTVSS	high polyreactivity
QVQLVESGGGLVQAGGSLRLSCAASGLTFASYAMGWYRQAPGKERELVARISRSGGSTYYADSVKGRFTISRDNAKNTVYLQMKSLKPEDTAVYYCAADYIFRRYPVGGIYDYDYWGQGTQVSVSS	high polyreactivity
QVQHAESGGGLDQAGGSLRLSCAASGGNFQANAMGWSRQATGKEREFVATITRGGGSTYYADSVKGRFTISRDNAKNTVYLQMNSLKPEDTAVYYCNSKPSYYQRYNYWGQGTQVTVSS	high polyreactivity
QVQLVESGGGLVQAGGSLRLSCADSGLIFYRYAMGWYRQAPGTERELVAAISGSVGSTYADSVKGRFTISRDNAKNTVYLQMNSLKPEDTVVYYCSRETYRSYGAYDYWGLGTQVTVSS	low polyreactivity
QVQLVESGGGLVQAGGSLRLSCAASGRTFFGYAMGWYRQAPGKERELVAAITSSGGRTYYADSVKGRFTISRDNAKNTVYLQMNSLKTEDTAVYYCNTVLSFRSVNIYRGRGDYWGQGTLVTVSS	high polyreactivity
QVQLVESGGGLVQAGGSLRLSCAASGSIFTYYAMGWYRQAPGKERELVAAISRRGGSTYYAVSVKGRFTISRDNAKNTVYLQMNSLKPEDTAVYYCNKVAYPRYYTGVNEFDYWGQGTQVTVSS	high polyreactivity
QVQLVDSGGGLVQAGGSLRLSCAASGRIVELYAMGGYRQAPGKEREMVAVITNGGSTYYADSVKGRFTISRDNAKNTVYLQMNSLKPEDTAFYFCNARRGYNRVGGSYGYWGQGTQVTVSS	low polyreactivity
QVQLVESGGGLVQAGGSLRLSCAASGIIFRVYAMGWYRQAPGKERELVASITDRGTRTYYADSVKGRFTISRDNAKNTVYLQMNSLKPEDTAVYYCADEPNYLYWGFFSVGYDYWGQGTQVTVSS	high polyreactivity
QVQLVESGGGLVQAGGSLRLSCAASGFIITTYAMGWYRQAPGTEREVVAGISSSGGSTRYADSVKGRFTISRDNAKNTVYLQMNSLKPEDTAVYYCNVLRYRGYDYWGQGTQVTVSS	high polyreactivity
QVQLVESGGGLVQAGGSLRLSCAASGRTLLLNTMGWYRQAPGKERELFAAISWRDGSTYYADSVKRRFTISRDNAKITVYLQMNSLIPEDTAVYYCNARLSGRSPYDLRFDYWGQGTQVTVSS	low polyreactivity
QVQLVESGGGLVQAGGSLRLSCAASGSIFDYNAMGWYRQAPGKVRELVAAITGSGGSTYYADSVKGRFTISRDNAKNTVYLQMNSLTAEDTAVYYCAAPVDYRRYEYEYWGQGTQVTVSS	low polyreactivity

Sequence	polyreactivity (PSR sort gate)
QVQLVESGGGLVQAGGSLRLSCAASGITLHYYAMGWYRQAPGKERELVATISRSGGSTYYADSVKGRFTISRDNAKNTVYLQMNSLKPEDTAVYYCAARSWGGYDSRGYWGQGTQVTVSS	high polyreactivity
QVQLVESGGGLVQAGGSLRLSSAASGSTFWYYAMGWYRQAPGKERELVAGITQSGGSTYYADSVKGRFTISRDNAKNTVYLQMNSLKPEDTAVYYCAKDGRVSGDFDYWGQGTQVTVSS	low polyreactivity
QVQLVESGGGLVQAGGSLRLSCAASGRTIAAYAMGWYRQAPGKERELVAAISRSGGSTYYADSVKGRFTISRDNAKNTVYLQMNSLKPEDTAVYYCAAQRQYGKFDYWGQGTQVTVSS	high polyreactivity
QVQLVESGGGLDQAGGSLRLSCAASGRIFFGNVMGWYRQATGKDSELVAAITKRVGRTYYADSVKGRFTISRDNAKNTVYLQMNSLKPEDTAVYYCNAVTPLSYCRAAPLEMDYWGQGTQVTVSS	high polyreactivity
QVQLVESVGGLGQAGGSLRLSCAASGSIFVLNARGWSRQAPGKERELVAGITYSGGSTYYADSVKGRFTISRDNATNTVYLQMNSLKPEDTAVYSCAAPVRRYPYPGRFYYWGQGTQVTVSS	low polyreactivity
QVQLVESGGGLVQAGGSLRLSCAASGSTFWLNAMGWYRPAPGKEWEFVAAITVRGGSTYYADSVKGRFTISRDNAKNTVYLQMNSLKPEDTAVYYCNKGSIEKTEMEYWGQGTQVTVSS	low polyreactivity
QVQLVESGGGLVQAGGSLRLSCSASGLTFYSYTKGWYRQAPGKERELVAAISYSGGNTYYADSVKGRFTISRDNAKNTVYLQMNSLKQEDTAVYYCNAYFRWYWLIEYDYWGQGTQVTVSS	high polyreactivity
QVQLVESGGGLVQAGGSLRLSCAASGRIFYSYAMGWYRQAPGKERELVAAISSAGSTYYADSVKGRFTISRDNAKNTVYLQMNSLKPEDTAVYYCAAGVTYYRYVSYVGPVPLGFDYWGQGTQVTVSS	high polyreactivity
QVQLVESGGGLVQAGGSLRLSCAASGSIFWGYAMGWYRQAPGKERELVASIGGDSTNYADSVKGRFTISRDNAKNTVYIQMNSLKQEYTPVYYCAARYRTDYYPEYEYWGQGTEVTVSS	low polyreactivity
QVQLVESGGCLVQAGGSLRLICAASGGLFGTYTMGWYRQAPGKERELVAAIRSSSGRTYYADSVKGRFTISRDNAKNTVYLQMNILKPEDTAVYYCNAKYYGYRVGKYYPFGYWGQGTQVTVSS	high polyreactivity
QVQLVESGGGLVQAGGSLRLSCAASGRIFTYYGMGWYRQARGKERELVAAISSSGDSTFYADSVKGRFTISRDNGKNTVYLQMNSLKPEDTAVYYCAADYYYVWYDYWGQGTQVTVSS	low polyreactivity
QVQLVESGGGLVQAGGSLRLSCAASGFIFDRNTMGWYRQAPGKERELVAAISRSGGSTYYADSVKGRFTISRDNAKNTVYLLMNSLKPEDSAVYYCAALYYYRNRSYDYWGQGTQVTVSS	high polyreactivity
QVQLVESGGCLVQAGGSLRLSCAASGSIFLFYAMGWYRHPPGKERELVAVIDTRASTTYYADSVKGRFTISRDNAKNTVYLQMNSLKPEDTAVYYCAAELQFTLYYSRPLLYQYYYWGQGTQVTVSS	high polyreactivity
QVQLVESGGGLVQAGGSLRLSCAAYGRIFRGYAMGRYRQAPGKEREFVAAITKNGGSTYYADSVKGRFTISRDNAKNTVYLQMNSLKPEDTAVYYCAVRALDPYTGKSDYWGQGTQVTVSS	low polyreactivity
QVQLVESGGGLVQAGGSLRLSCAASGIIIRKYAMGWYRQAPGKERELVAAITTRGSRTYYADSVKGRFTISRDNAKNTVYLQMNSLKPEDTAVYYCAADRYTVRMDYWGQGTQVTVSS	high polyreactivity
QVQLVESAGGLVQAGGSLRLSCAASGFIFHRYAMGWYRQAPGKERELVAAITGRGSSTYYADSVKGRFTISRDNAKNTVYLQMNSLKPEDTAVYYCNAYRYQVYDTGWFGYWGQGTQVTVSS	high polyreactivity
QVQLVESGGGLVQAGGILRLSCAAYGFTFYSYSMGWYRQAPGKEREFVAAGSTYYADSVKGRFTISRDNAKNTVYLQMNSLKPEDTAVYYCAADPWIYVQSYGFWGQGTQVTVSS	low polyreactivity
QVQLVESGGGLVQAGGSLRLSCAASGFIFATNTMGWYRQAPGKERELVAASSTYYADSVKGRFTISRDNAKNTVYLQMNSLKPEDTAVYYCNADRDSYIGFVVWAGEYWGQGSQVTVSS	low polyreactivity
QLQLVESVGGLVQAGGSLRLSCAPSGSTFYWNAMGWYRQAPGKERELVAVITSSGTRTYYADSVKGRFTISRDNAKNTVYLQMNSLKPEDTEVDYCAKRETYTGPNSRYGQWKKVYYWGQGTQVTVSS	low polyreactivity
QVQLVESGGGLVQAGGSLRLSCAASGRIFPFYAMGWYRQAPGKERELVAAISRGGSTKYADSVKGRFTISRDNAKNTVYLQMKSLKPEDTAVYYCAAAGYGGSVAAYYYWGQGTQVTVSS	high polyreactivity
QVQLVESGGGLVQAGGSLRLSCAASGIIFHYYAMGWYRQAPGKERELVAAISGSGGSTYYADSVKGRFTISRDNAKNTVYLQMNSLKPEDTAVYYCAAKLWGGGGYWGQGTQVTVSS	high polyreactivity
